Measurements: the DeepSol protein solubility set

experiment: soluble on expression in E. coli; label from the status in PepcDB or PDB records

Row | Sequence | soluble on expression in E. coli
1 | MRVLVTGGSGYIGSHTCVQLLQNGHDVIILDNLCNSKRSVLPVIERLGGKHPTFVEGDIRNEALMTEILHDHAIDTVIHFAGLKAVGESVQKPLEYYDNNVNGTLRLISAMRAANVKNFIFSSAATVYGDNPKIPYVESFPTGTPQSPYGKSKLMVEQILTDLQKAQPDWSIALLRYFNPVGAHPSGDMGEDPQGIPNNLMPYIAQVAVGRRDSLAIFGNDYPTEDGTGVRDYIHVMDLADGHVVAMEKLANKPGVHIYNLGAGVGNSVLDVVNAFSKACGKPVNYHFAPRREGDLPAYWADASKADRELNWRVTRTLDEMAQDTWHWQSRHPQGYPD | soluble
2 | MFGGIENVKAAEPKVYQFDFGSGSMEPGYIGVRASDRYDRSKGYGFQTPENMRDVAASGAGVKSDAVEFLAYGTKSNNTFNVDLPNGLYEVKVTLGNTARASVAAEGVFQVINMTGDGAEDTFQIPVTDGQLNLLVTEGKAGTAFTLSALKIKKLSDQPVTNRTIYVGGDSTVCNYYPLNSSKQAGWGQMLPHYIDKHTFQVRNMASGGQIARGFRNDGQLEAILKYIKPGDYFMLQLGINDTNPKHKESEAEFKEVMRDMIRQVKAKGADVILSTPQGRATDFTSEGIHSSVNRWYRASILALAEEEKTYLIDLNVLSSAYFTSIGPERTLGLYMDGDTLHPNRAGADALARLAVQELKRQGIAGFLEHHHHHH | soluble
3 | MQELKVPSVGESIVEVEIGAWLKGEGESFAQDEPLVELITDKATLELPAPFAGTLKQILKRTGETARVGEAIALLEEGRAEAAPKAQAPAEAPKEPSPEPLAMPAAERLMQEKGVSPAEVQGTGLGGRILKEDVMRHLEERAPAKPQEAPPPPPPSRPAPPPSTPPQPPADKPWRVSEAVPMTPLRRRIAERLLMVRQTTAMLTTFNEADMSAVIALRKEFGEAFQKKYGVKLGFMSFFVKAVVQALKEIPELNAEIRDNHIVYHRYYDIGIAVGGGEGLVVPVIRDADRLSFAEIEQKIADFAERARTKKLKPEELMGGTFTITNGGIYGSLNSTPLLNPPQVGILGMHAIQERPVVRDGQVVIRPMMYLALSYDHRIVDGREAVTFLRRVKELIENPARLLLEV | soluble
4 | MGASQSAEQEARPEVVRIDRNEIPEEYKTVGVSSDVVSRVNATRVAGNDGESDRLRQELAREREEKARLREDMAKLSQLQQRKTAGISAAPVSISGNDLEERKKIFDDTVERVQKQFFAYHRENVCQDNENEIVRCLQENPGRVLKCAPLTEAFEKCVGEFRQQVLKGN | not soluble
5 | MSNRFAVILAAGKGTRMKSKLYKVLHPVCGKPMVQHVVDQVSQLGLQKLVTVVGHGAEMVQEQLGNVSEFALQAEQLGTAHAVDQAAGVLANEEGTTLVICGDTPLITAETMEALLQQHKEAGAMATVLTAYIEEPAGYGRIVRNENGHVEKIVEHKDANEKELAIKEINTGTYCFDNKALFASLSKVSNDNVQGEYYLPDVIEILKNEGHIVSAYQTEHFDETLGVNDRVALSQAEIIMKNRINRKNMVNGVTIIDPSNTYISADAIIGSDTVLHPGTIIEGNTVIGSDCEIGPHTVIRDSEIGDRTTIRQSTVHDSKLGTEVSVGPFAHIRPDSVIGDEVRVGNFVEIKKTVFGNRSKASHLSYIGDAQVGEDVNLGCGSITVNYDGKNKFKTVIGNGVFIGCNSNLVAPVTVEDGAYVAAGSTITENVPSKALSVARARQVNKEDYVDQLLNKKKS | not soluble
6 | GSHMSHLDNTMAIRLLPLPVRAQLCAHLDALDVWQQLATAVKLYPDQVEQISSQKQRGRSASNEFLNIWGGQYNHTVQTLFALFKKLKLHNAMRLIKDYVSEDLHKYI | soluble
7 | MLIAVPLDDTNFSENLKKAKEKGADIVELRVDQFSDTSLNYVKEKLEEVHSQGLKTILTIRSPEEGGREVKNREELFEELSPLSDYTDIELSSRGLLVKLYNITKEAGKKLIISYHNFELTPPNWIIREVLREGYRYGGIPKIAVKANSYEDVARLLCISRQVEGEKILISMGDYGKISRLAGYVFGSVITYCSLEKAFAPGQIPLEEMVELRKKFYRL | soluble
8 | MIHSSVKRWGNSPAVRIPATLMQALNLNIDDEVKIDLVDGKLIIEPVRKEPVFTLAELVNDITPENLHENIDWGEPKDKEVW | soluble
9 | MHAVHQLHQYRKSLSTTTYKSRGQRVIRCQLCQLAKPFCICEISPLKENVETTAGFLLLMYDTEVLKPSNTGKLIADLIPDTFAFLWSRTQENPDLLAVINDEKWFPLVVFPQEYADDERKVFTNNVICPEGKRPLFIMLDGSWREAKKMFRKSPYLDRFPMVSFDVKTAIQAVSGNCQSENNSQLSPVGQDSRYTVRKTELEHQFSTAEVAARVLDMHGETTNAHMLDLWFDVFNFQYQKGVCQRNKGNVNAIENYQSFLAKTYRLEHHHHHH | not soluble
10 | MTHPIIHDLENRYTSKKYDPSKKVSQEDLAVLLEALRLSASSINSQPWKFIVIESDAAKQRMHDSFANMHQFNQPHIKACSHVILFANKLSYTRDDYDVVLSKAVADKRITEEQKEAAFASFKFVELNCDENGEHKAWTKPQAYLALGNALHTLARLNIDSTTMEGIDPELLSEIFADELKGYECHVALAIGYHHPSEDYNASLPKSRKAFEDVITIL | soluble
11 | MIIMGLFDEVVGAFLKGDAGKYQAILSWVEEQGGIQVLLEKLQSGGLGAILSTWLSNQQGNQSVSGEQLESALGTNAVSDLGQKLGVDTSTASSLLAEQLPKIIDALSPQGEVSPQANNDLLSAGMELLKGKLFR | not soluble
12 | MSLHKEYIQNYLNLTRNTGNLMLFAGDQKIEHLNEDFYGKDISKDDADPEHLFKIAENSKIGGFAVQFGLLSRYGRDHKDINYIVKLNSKTNLVDTNQKDPLSRALLDINDILEFKKNSGINIVGVGYTIYLGSEYESEMLSEASKIIYEAHKGGLVVILWIYPRGKAVKDEKDSELISGATGVAACLGADFVKVNYPKSENPAESFKEAVMAAGRTKVVCAGGSSTDIESFLKQLYEQIHISGASGNATGRNIHQKSLSDAVSMCNAIYAITIDGKTVSEALNIYNERKSEGHHHHHH | not soluble
13 | MIYPYNSTISLGTVSLNVTDLAKMTTFYTSIIGLQVLSQDTTSRQLTTDGKTVILELRQTPLPGDKAYGLYHTAFLVPDRHSLGLVLNHFLTRSISLEGAADHGHSEAIYLSDPEGNGIEIYHDKAVEHWDIRDNGQIIGVTEPTDTKSILEQLTDIPKHFLLAQDTRIRHVHLSVKNALASSLLYQKVFDLGDKMTIPSASWIASGNYYHHLAFNHWSAPYLKKHQEGAPGLAFLTIHIETPLLFSATLKKARLHGLAILQEDSSSFTTEDEEGIRVNVILGQD | not soluble
14 | MSLWKSMTYYQKMIQEPSREKLLPDPLKYPYVQPPYTLVLEMKDVLVHPDWTYQTGWRFKKRPGVDKFLETLAANYEIVVFTADQGMTVFPILDALDPRGYIMYRLVRDATHFVDGHHVKNLDNLNRDLSKVIVVDWDPNSTKLHPENTLNIPRWTGNDDDAGLFDLMAMLVTIATSEVEDVRDVMTYYKSFENPLVKFRENQRLLAEQMAEREHEEKQRNLPAVQRWRPSFLEGHHHHHH | soluble
15 | MSLSTFRSIEWKKDKLVLLDQRYLPEKTLYLELKTVDEVARAIKEMTVRGAPAIGVAAAYGMVLCVQKLSKNDDLIRELQKADDLLRASRPTAVNLFWALDRMKKIWQGFNGSLEDLKMILEKEATDIEREDVEINKQIAKNGVELVPFGAKIIHHCNTGSLATVDYGTALGVIRYAHEIGKKIHVFLDETRPRLQGARLSAWEMKELGIPHTIIVDGASGLVMKKFKIDLALVGADRIAANGDTANKIGTYNLAIVAKYHNVPLYVVAPTSTIDLKTPAGQDIPIEERSADEIRCVGNSQVAPQESPVFNPAFDVTPAELISGIITEKGIVYPPFKENLRKLFESAEGHHHHHH | soluble
16 | MIILQANKIERSFAGEVLFDNINLQVDERDRIALVGKNGAGKSTLLKILVGEEEPTSGEINKKKDISLSYLAQDSRFESENTIYDEMLHVFNDLRRTERQLRQMELEMGEKSGEDLDKLMSDYDRLSENFRQAGGFTYEADIRAILNGFKFDESMWQMKIAELSGGQNTRLALAKMLLEKPNLLVLDEPTNHLDIETIAWLENYLVNYSGALIIVSHDRYFLDKVATITLDLTKHSLDRYVGNYSRFVELKEQKLVTEAKNYEKQQKEIAALEDFVNRNLVRASTTKRAQSRRKQLEKMERLDKPEAGKKSANMTFQSEKTSGNVVLTVENAAVGYDGEVLSQPINLDLRKMNAVAIVGPNGIGKSTFIKSIVDQIPFIKGEKRFGANVEVGYYDQTQSKLTPSNTVLDELWNDFKLTPEVEIRNRLGAFLFSGDDVKKSVGMLSGGEKARLLLAKLSMENNNFLILDEPTNHLDIDSKEVLENALIDFDGTLLFVSHDRYFINRVATHVLELSENGSTLYLGDYDYYVEKKATAEMSQTEEASTSNQAKEASPVNDYQAQKESQKEVRKLMRQIESLEAEIEELESQSQAISEQMLETNDADKLMELQAELDKISHRQEEAMLEWEELSEQV | not soluble
17 | MSLDSLYVNDFYKGDRNITKFLKLELEMYDWKLMILHYLGLDHIGHVEGPFSDKVPGKLKEMDKVIKTIYHTMDKWKYYTKPLLVITGDHGMRDSGGHGGSSHAETIVPVVIVSDQCAKSEETFLQIDEGHHHHHH | not soluble
18 | NKDMEFTLRANFTYSTNKVNYYEEGDTKYEYTSATGRPNGYMKGYIALGLFKDQEEINNSPKQDFGSYLPGDIKYKDVNGDGVVNSDDQVPVSYQDYPRLMYGFGGEFRWKKLTLGVRFSGIGNTDYYKIWTWGSNNVGYIPFYDGKLGNVLTIAANPANRWIPADYDDPSIPASMRENPNAMFPRLSYGSNQNNAQASTFWKGNRKYLRLDEISLNYNCNCNLLKSIGINSIDLAVVANDLHTWDSVKLFDPELATSNGRAYPIPGRVSFQAIVHF | not soluble
19 | SNAMKIVIAPDSYKESLSALEVATAIEQGFREIWPDADYLKLPLADGGEGTVEAMVEATAGRIVHVEVTGPLGHRVNAFYGLSGDARSAFIEMAAASGLEQVPPAQRDPLKTTSWGTGELIRHALDAGVEHIIIGIGGSATNDGGAGMVQALGARLRDAQGNDIAQGGIGLETLASIDISGLDKRLSACHIEVACDVTNPLTGKEGASAVFGPQKGATPEMIERLDTALTRYAHLIARDLHVDVLDLAGGGAAGGMGAALYAFCGAQLRRGIEIVTDALHLEACLADADLVITGEGRIDSQTIHGKVPIGVANIAKRYNKPVIGIAGSLTADVSVVHEHGLDAVFSVIYTICTLEDALKNASENVRMTARNVAATLKAGQQLR | soluble
20 | GDEEKRNRAITARRQHLKSVMLQIAATELEKEEGRREAEKQNYLAEH | soluble
21 | MGAVGRGRRMSERHLRRSTHKVGDITLGAVHRLNCHCGAVQIDLDLPHGLVDPRRCDCSMCRRRGAIVASVPLQGLHVRQGEDVLRLYQFNTHAAAHYFCGVCGIYTHHRRRSNPNEYGYNVGCLEGVNPYALNITVPVEDGIHHPADRVAPQLEHHHHHH | not soluble
22 | MNPLEAVEHQGGLQLSTPPYEIAVDQKCYWRNQPIGLTLQGHNESIWFKGFVIQPFKWNNDQLGERFGQLVRLDDNGSWQQQCFRYQVSATHSHDEKKKHIKMWWKVDDEVDTVQFVATVVKHQTQFWVKSVRSRPLPPCRLNRDGFPNYQAPVPQIPPQVKQFKMETFKVFDSIVRRRPFNH | not soluble
23 | MSLCMEAVMNIGIYIYDEAEVLDFSGPFEVFSTAKRLGAGSWNVFLVSETLEPVKARGGFTVLPDYSFQNYPQIDLLIVVGGVHRNEMNKSNVLHWVASVDKHAKHIASVCTGAFILANAGLLKGLAVTTHWEDIPELKQRFPDLVVVEDKRWITASKYTTSGGISAGIDMSLFLVSKFHSQSHAELVAHQMEYNWQKCTEGGSHHHHHH | soluble
24 | MYSFTTERLMIRPLRAEDEVFYCQLYADSKVMENIGKTITKKQARQWFKRALKALSSPKKSVVTLAIVKKSTNNIIGIQALSWQNTTQILKPCSQKLVQAEIGIMLTTKAQGQGFGKEAIKALMAYGFVYHSLDRINAFYAKKNLASERLFNSLH | not soluble
